The target of one assay is T1, human ferroportin (Homo sapiens, UniProt Q9NP59).
T1 sequence (Q9NP59 1-571): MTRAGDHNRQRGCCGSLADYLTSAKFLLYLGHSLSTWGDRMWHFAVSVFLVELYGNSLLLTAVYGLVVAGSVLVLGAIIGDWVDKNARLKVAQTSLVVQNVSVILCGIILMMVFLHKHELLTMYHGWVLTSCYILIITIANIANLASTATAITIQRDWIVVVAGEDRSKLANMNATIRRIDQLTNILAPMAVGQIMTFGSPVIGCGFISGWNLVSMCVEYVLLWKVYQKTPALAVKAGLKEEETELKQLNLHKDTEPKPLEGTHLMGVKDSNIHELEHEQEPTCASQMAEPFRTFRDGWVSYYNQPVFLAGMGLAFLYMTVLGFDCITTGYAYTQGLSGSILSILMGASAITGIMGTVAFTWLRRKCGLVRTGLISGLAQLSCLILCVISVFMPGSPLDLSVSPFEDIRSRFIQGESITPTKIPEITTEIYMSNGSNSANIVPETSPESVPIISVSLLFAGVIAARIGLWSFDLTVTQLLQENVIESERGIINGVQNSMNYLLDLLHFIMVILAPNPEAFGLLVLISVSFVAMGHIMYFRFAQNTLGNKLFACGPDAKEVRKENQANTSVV
The experiment in a line: FPN internalization assay (FPN activity assay), loss of ferroportin-GFP fluorescence. It counts as cell-based. Conditions: Table 5 reference compounds; value in μM; read-out: Potency EC50.

Assay [1] addresses T2, human ferroportin (SLC40A1) fused in frame with the GFP protein, stably expressed in HEK293 cells (human) (UniProt Q9NP59).
T2 sequence (looked up): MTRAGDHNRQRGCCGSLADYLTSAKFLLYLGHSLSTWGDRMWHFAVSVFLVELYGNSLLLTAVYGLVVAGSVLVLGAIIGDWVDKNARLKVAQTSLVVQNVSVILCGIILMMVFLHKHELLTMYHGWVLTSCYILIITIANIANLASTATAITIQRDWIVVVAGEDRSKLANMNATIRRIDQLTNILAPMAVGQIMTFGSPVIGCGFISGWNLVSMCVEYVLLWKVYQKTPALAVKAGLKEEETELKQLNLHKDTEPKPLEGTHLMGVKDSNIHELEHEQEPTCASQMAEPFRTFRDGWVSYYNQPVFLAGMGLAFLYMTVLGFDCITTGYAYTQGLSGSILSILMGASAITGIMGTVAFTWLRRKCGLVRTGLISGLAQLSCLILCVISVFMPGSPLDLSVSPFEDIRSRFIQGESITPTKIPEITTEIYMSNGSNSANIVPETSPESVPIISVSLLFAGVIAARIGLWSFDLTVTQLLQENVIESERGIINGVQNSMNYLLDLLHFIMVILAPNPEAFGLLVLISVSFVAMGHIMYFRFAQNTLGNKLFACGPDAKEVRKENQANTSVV
Description: cell-based or functional assay.

Experimental findings from patent US20250361280A1 (Protagonist Therapeutics, Inc., priority 2022, published 2025) are described below.

For orientation: EC50 means the concentration that produces a half-maximal response. As to `CC[C@@H](C)[C@@H](NC(=O)[C@H](N)Cc1ccccc1)C(=O)N[C@H](CS)C(=O)N[C@@H](C(=O)N1CCC[C@@H]1C(=O)N[C@H](Cc1ccccc1)C(=O)N[C@H](Cc1c[nH]cn1)C(=O)N[C@@H](C(=O)N[C@H](CC(=O)O)C(N)=O)[C@H](C)O)[C@H](C)CC` [RI-Mini Hepcidin, Hy-DPhe-DIle-DCys-DIle-DPro-DPhe-DHis-DThr-DAsp-NH2], at human ferroportin, the EC50 was more than 10 µM.
“RI-Mini Hepcidin, Hy-DPhe-DIle-DCys-DIle-DPro-DPhe-DHis-DThr-DAsp-NH2 (peptide)” yielded a Potency EC50 (nM) in assay [1] of more than 10000 nM.
Molecule H-DTHFPICIF-NH2 (peptide, from a related filing) [Mini-Hepcidin 1-9, Hy-…-NH2] registered a Potency EC50 in assay [1] of 0.712 µM.
